Experimental data published in patent publication US20050042747A1, “Hivgp120-induced bob/gpr15 activation” (priority 2001, published 2005).

How the values were obtained:
Assay type in all cases: cell-based
Design in all cases: key: — = no calcium flux seen at any dilution tested
CCR2b = molecular target: T1, CCR2b (Homo sapiens, UniProt P41597); experiment: gp120-induced calcium flux, Ghost (3) cells transfected with CCR2b; conditions: Ghost (3) CCR2b cells
T1 construct: host or cells: Ghost (3) cells (human osteosarcoma, CD4+)
T1 sequence (P41597 1-360 isoform P41597-2): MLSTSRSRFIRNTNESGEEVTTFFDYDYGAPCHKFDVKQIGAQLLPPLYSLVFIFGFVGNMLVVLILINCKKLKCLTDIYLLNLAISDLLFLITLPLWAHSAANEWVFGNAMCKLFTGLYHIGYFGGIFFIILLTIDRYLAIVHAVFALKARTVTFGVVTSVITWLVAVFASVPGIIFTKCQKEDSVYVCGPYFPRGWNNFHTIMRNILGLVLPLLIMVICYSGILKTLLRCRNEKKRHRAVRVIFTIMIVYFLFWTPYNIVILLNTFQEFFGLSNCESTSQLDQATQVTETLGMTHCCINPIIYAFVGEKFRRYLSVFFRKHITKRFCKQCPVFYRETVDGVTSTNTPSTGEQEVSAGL
From the text: (§1) Human osteosarcoma cell lines were transfected to express CD4, one or another of the HIV coreceptors, and a Green Fluorescent Protein reporter for active HIV infection, for the purpose of testing which of the known coreceptors was used to induce HIV infection by a given HIV strain (Morner A. J Virol 73:2343-9, 1999 and Deng K Nature 388:296-300, 1997). These cells were obtained from the AIDS Research and Reference Reagent Program, courtesy of Dr. Vineet KewalRamani and Dr. Dan Littman. These cells were grown in DMEM with 10% bovine calf serum supplemented with 0.5 mg/ml G418, 0.1 mg/ml hygromycin, and 1 microgram/ml puromycin, and were used at low passage number (less than 10). We have discovered that these cell lines are also activated by gp120 of certain viral strains, inducing a calcium flux in these cells.
(§2) Within 4 days of plating, coreceptor-transfected Ghost (3) cells (as well as the parent cell line not transfected to express any HIV coreceptors as a control) were put in Locke's medium, then treated with Fluo-4 (5 micrograms/ml for 30 minutes at 37° C.). […] The results are given in the following table, expressed as the minimal concentration of gp120 resulting in a significant calcium flux. […]

CXCR4 = molecular target: T2, CXCR4 (Homo sapiens, UniProt P61073); experiment: gp120-induced calcium flux, Ghost (3) cells transfected with CXCR4; conditions: Ghost (3) CXCR4 cells
T2 construct: host or cells: Ghost (3) cells (human osteosarcoma, CD4+)
Protocol: (§3) Calcium studies were done on HT-29 cells and Ghost (3) cells loaded with Fluo 4. The cells were placed in Locke's buffer containing 5 μg/ml Fluo 4 AM ester (Molecular Probes) for 20 to 30 minutes, then in Locke's buffer for an additional 30 minutes before testing. Various concentrations of gp120IIIB (X4 trophic), gp120CM235 (R5 trophic), gp120mN (X4 trophic), gp12093TH975 (nonsyncytium-inducing primary isolate from an asymptomatic subject, trophism undetermined but likely R5), and gp120SF2 (X4R5 trophic), ranging from 10 nM to less than 1 pM, were added in Locke's buffer.^6 The gp120 proteins were obtained from the AIDS Research Reagent Referral Program. Some HT-29 cells were given one of the following pretreatments: 50 μg/ml anti-Bob37 overnight, 1 μg/ml pertussis toxin overnight, or 4.6 μg/ml U73122 for one hour. With the HT-29 cells only, similar tests were also performed with SDF-1, MIP-1α, MIP-1β, and RANTES rather than gp120. The cells were visualized every 4 seconds in a confocal microscope, using 488 nm argon laser excitation and detection filters appropriate for fluorescein-like dyes.
as §1
(§4) Within 4 days of plating, coreceptor-transfected Ghost (3) cells (as well as the parent cell line not transfected to express any HIV coreceptors as a control) were put in Locke's medium, then treated with Fluo-4 (5 micrograms/ml for 30 minutes at 37° C.). After an additional 30 minute incubation in Locke's buffer at room temperature, the cells were examined in a confocal microscope while gp120 of various viral strains was added, and the cells were examined at 4 second intervals to look for a gp120-induced calcium flux. The results are given in the following table, expressed as the minimal concentration of gp120 resulting in a significant calcium flux. “−” means that no reproducible calcium flux was observed. “ND” means that the gp120 of that viral strain was not tested with the stated coreceptor. […]

CCR4 = molecular target: T3, CCR4 (Homo sapiens, UniProt P51679); experiment: gp120-induced calcium flux, Ghost (3) cells transfected with CCR4; conditions: Ghost (3) CCR4 cells
T3 construct: host or cells: Ghost (3) cells (human osteosarcoma, CD4+)
T3 sequence (P51679 1-360): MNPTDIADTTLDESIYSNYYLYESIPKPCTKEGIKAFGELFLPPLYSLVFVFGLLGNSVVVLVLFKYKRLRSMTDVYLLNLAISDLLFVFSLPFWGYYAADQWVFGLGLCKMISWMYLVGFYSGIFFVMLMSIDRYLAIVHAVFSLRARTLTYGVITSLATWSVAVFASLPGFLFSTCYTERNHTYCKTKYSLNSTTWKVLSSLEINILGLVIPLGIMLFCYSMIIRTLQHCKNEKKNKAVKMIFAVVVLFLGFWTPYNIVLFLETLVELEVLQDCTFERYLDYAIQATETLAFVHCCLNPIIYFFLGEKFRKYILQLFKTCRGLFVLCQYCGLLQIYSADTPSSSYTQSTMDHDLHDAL
From the text: as §1, §2

CCR5 = molecular target: T4, CCR5 (Homo sapiens, UniProt P51681); experiment: gp120-induced calcium flux, Ghost (3) cells transfected with CCR5; conditions: Ghost (3) CCR5 cells
T4 construct: host or cells: Ghost (3) cells (human osteosarcoma, CD4+)
Protocol: as §3, §1, §4

CX3CR1 = molecular target: T5, CX3CR1 (Homo sapiens, UniProt P49238); experiment: gp120-induced calcium flux, Ghost (3) cells transfected with CX3CR1; conditions: Ghost (3) CX3CR1 cells
T5 construct: host or cells: Ghost (3) cells (human osteosarcoma, CD4+)
T5 sequence (P49238 1-355): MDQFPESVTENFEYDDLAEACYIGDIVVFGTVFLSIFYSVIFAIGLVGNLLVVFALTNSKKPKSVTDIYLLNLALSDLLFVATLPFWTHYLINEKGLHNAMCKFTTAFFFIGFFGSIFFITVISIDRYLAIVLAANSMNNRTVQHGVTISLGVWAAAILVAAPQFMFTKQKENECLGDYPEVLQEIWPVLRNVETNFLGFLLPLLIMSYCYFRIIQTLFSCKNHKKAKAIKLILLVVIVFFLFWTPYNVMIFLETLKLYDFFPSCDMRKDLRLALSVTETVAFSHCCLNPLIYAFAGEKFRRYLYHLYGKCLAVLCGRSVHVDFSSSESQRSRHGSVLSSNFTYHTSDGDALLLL
From the text: as §1, §2

| Substance | minimal concentration of gp120 resulting in a significant calcium flux (CCR2b) | minimal concentration of gp120 resulting in a significant calcium flux (CXCR4) | minimal concentration of gp120 resulting in a significant calcium flux (CXCR4; listed as IIIB) | minimal concentration of gp120 resulting in a significant calcium flux (CCR4) | minimal concentration of gp120 resulting in a significant calcium flux (CCR5) | minimal concentration of gp120 resulting in a significant calcium flux (CCR5; listed as IIIB) | minimal concentration of gp120 resulting in a significant calcium flux (CX3CR1) |
| --- | --- | --- | --- | --- | --- | --- | --- |
| gp120IIIB: HIV-1 envelope surface protein gp120 of strain IIIB (X4 trophic), from the AIDS Research Reagent Referral Program | 250 nM | at least 150 pM | 150 pM | — | about 1 nM | 250 nM | — |
| gp120SF2: gp120 of HIV strain SF2 (X4R5 trophic) | — | — |  | — | — |  | — |
